This series concerns the molecule itself. Put plainly: SEC. On the technique in general: SEC sorts molecules by how far they enter the pores of the column.

These results are taken from paper PMC4556779 (Redox Biology, 2015).

B1: sulfinylated Myc-Tsa1 (CP-SO2H), from H2O2-exposed cells (enzyme, S. cerevisiae, UniProt P34760 1-196, looked up)
chain: MVAQVQKQAPTFKKTAVVDGVFDEVSLDKYKGKYVVLAFIPLAFTFVCPTEIIAFSEAAKKFEEQGAQVLFASTDSEYSLLAWTNIPRKEGGLGPINIPLLADTNHSLSRDYGVLIEEEGVALRGLFIIDPKGVIRHITINDLPVGRNVDEALRLVEAFQWTDKNGTVLPCNWTPGAATIKPTVEDSKEYFEAANK
modifications: sulfinic acid (CP-SO2H) at the peroxidatic Cys (CP, C48)
In general, stoichiometry N refers to a count of units in the complex or per binding partner. Turning to B1, the “stoichiometry N” value is approximately 20.
